The values below come from patent publication US20170306033A1 (Amgen, published 2017).

One assay addresses T1, human PAC1 receptor (human, UniProt P41586 21-468).
T1 sequence: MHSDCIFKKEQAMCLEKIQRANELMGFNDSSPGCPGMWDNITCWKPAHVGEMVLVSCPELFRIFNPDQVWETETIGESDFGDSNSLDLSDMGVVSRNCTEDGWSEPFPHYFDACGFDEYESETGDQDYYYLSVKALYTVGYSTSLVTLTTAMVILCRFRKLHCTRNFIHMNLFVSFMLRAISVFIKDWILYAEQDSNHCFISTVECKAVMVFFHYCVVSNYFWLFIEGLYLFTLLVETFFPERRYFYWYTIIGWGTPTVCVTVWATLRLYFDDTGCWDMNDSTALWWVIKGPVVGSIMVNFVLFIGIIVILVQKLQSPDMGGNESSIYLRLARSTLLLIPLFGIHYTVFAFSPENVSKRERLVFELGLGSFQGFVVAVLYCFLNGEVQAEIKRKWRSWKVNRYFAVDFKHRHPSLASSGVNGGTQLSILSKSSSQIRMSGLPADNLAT
Briefly: cell-based or functional assay.

The target in the next assay is human CGRP receptor (human, UniProt Q16602 23-461; O60894 27-148). The assay can be described thus: cell-based or functional assay.
Sequence of human CGRP receptor (Q16602 23-461 limits assumed, chain 1 of 2): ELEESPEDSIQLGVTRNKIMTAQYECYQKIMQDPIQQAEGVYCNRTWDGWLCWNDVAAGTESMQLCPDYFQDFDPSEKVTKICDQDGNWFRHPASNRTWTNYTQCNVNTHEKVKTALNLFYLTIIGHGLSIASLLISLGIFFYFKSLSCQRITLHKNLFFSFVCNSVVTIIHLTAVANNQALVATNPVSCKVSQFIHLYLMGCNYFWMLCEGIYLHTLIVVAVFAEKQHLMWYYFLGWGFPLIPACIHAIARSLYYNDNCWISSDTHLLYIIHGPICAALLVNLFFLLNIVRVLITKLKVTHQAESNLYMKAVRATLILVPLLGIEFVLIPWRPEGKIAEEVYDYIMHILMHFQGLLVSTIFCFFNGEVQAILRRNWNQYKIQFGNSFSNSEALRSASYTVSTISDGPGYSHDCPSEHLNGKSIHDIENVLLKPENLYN
Sequence of human CGRP receptor (O60894 27-148 limits assumed, chain 2 of 2): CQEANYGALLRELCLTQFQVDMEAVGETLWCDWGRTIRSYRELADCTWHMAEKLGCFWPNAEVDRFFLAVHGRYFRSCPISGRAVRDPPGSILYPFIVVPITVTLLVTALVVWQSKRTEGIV

Numbering of substitutions follows the chain as printed.

B1: iPS:328033 (bispecific antibody, human IgG1, kappa, N297G)
light 1: not shown
heavy 1: not shown
light 2: EIVLTQSPGTLSLSPGERATLSCRASQSVSSGYLTWYQQKPGQAPRLLIYGASSRATGIPDRFSGSGSGTDFTLTISRLEPEDFAVYYCQQYGNSLSRFGQGTKLEIKRTVAAPSVFIFPPSDEQLKSGTASVVCLLNNFYPREAKVQWKVDNALQSGNSQESVTEQDSKDSTYSLKSTLTLSKADYEKHKVYACEVTHQGLSSPVTKSFNRGEC
heavy 2: not shown
Regarding B1, the “% inhibition of human PAC1” value with human PAC1 receptor was found to be 20%. Moreover, the “% inhibition of human CGRPR” value in the assay with human CGRP receptor is 82%.

B2: iPS:326669 (bispecific antibody, human IgG2, kappa)
light 1: EIVLTQSPATLSLSPGERATLSCRASQSVGRSLHWYQQKPGQAPRLLIKYASQSLSGIPARFSGSGSGTDFTLTISSLEPEDFAVYYCHQSSRLPFTFGPGTKVDIKRTVAAPSVFIFPPSDEQLKSGTASVVCLLNNFYPREAKVQWKVDNALQSGNSQESVTEQDSKDSTYSLESTLTLSKADYEKHKVYACEVTHQGLSSPVTKSFNRGEC
heavy 1: QVQLVESGGGVVQPGRSLRLSCAASGFTFSRFAMHWVRQAPGKGLEWVAVISYDGGNKYYAESVKGRFTISRDNSKNTLYLQMNSLRAEDTALFYCARGYDVLTGYPDYWGQGTLVTVSSASTKGPSVFPLAPCSRSTSESTAALGCLVKDYFPEPVTVSWNSGALTSGVHTFPAVLQSSGLYSLKSVVTVPSSNFGTQTYTCNVDHKPSNTKVDKTVERKCCVECPPCPAPPVAGPSVFLFPPKPKDTLMISRTPEVTCVVVDVSHEDPEVQFNWYVDGVEVHNAKTKPREEQFNSTFRVVSVLTVVHQDWLNGKEYKCKVSNKGLPAPIEKTISKTKGQPREPQVYTLPPSREEMTKNQVSLTCLVDGFYPSDIAVEWESNGQPENNYDTTPPMLDSDGSFFLYSDLTVDKSRWQQGNVFSCSVMHEALHNHYTQKSLSLSPGK
light 2: B1 light 2
heavy 2: QVQLVESGGGVVQPGRSLRLSCAASGFTFSSYGMHWVRQAPGKGLEWVAVIWYDGSNKYYADSVKGRFIISRDKSKNTLYLQMNSLRAEDTAVYYCARAGGIAAAGLYYYYGMDVWGQGTTVTVSSASTKGPSVFPLAPCSRSTSESTAALGCLVKDYFPEPVTVSWNSGALTSGVHTFPAVLQSSGLYSLESVVTVPSSNFGTQTYTCNVDHKPSNTKVDKTVERKCCVECPPCPAPPVAGPSVFLFPPKPKDTLMISRTPEVTCVVVDVSHEDPEVQFNWYVDGVEVHNAKTKPREEQFNSTFRVVSVLTVVHQDWLNGKEYKCKVSNKGLPAPIEKTISKTKGQPREPQVYTLPPSRKKMTKNQVSLTCLVKGFYPSDIAVEWESNGQPENNYKTTPPMLKSDGSFFLYSKLTVDKSRWQQGNVFSCSVMHEALHNHYTQKSLSLSPGK
For the molecule B2, in the assay with human PAC1 receptor, the “% inhibition of human PAC1” value is 85%. In addition, in the assay with human CGRP receptor, the “% inhibition of human CGRPR” value amounted to 74%.

B3: iPS:328035 (bispecific antibody, human IgG1, kappa, N297G)
light 1: DIQMTQSPSSLSASVGDRITITCRASQSISRYLNWYQQKPGKAPKLLIYAASSLQSGIPSRFSGSGSGTDFTLTINSLQPEDFATYFCQQSYSPPFTFGQGTKVDIKRTVAAPSVFIFPPSDEQLKSGTASVVCLLNNFYPREAKVQWKVDNALQSGNSQESVTEQDSKDSTYSLESTLTLSKADYEKHKVYACEVTHQGLSSPVTKSFNRGEC
heavy 1: not shown
light 2: B1 light 2
heavy 2: not shown
B3: the “% inhibition of human PAC1” value in the assay with human PAC1 receptor is 10%. In addition, in the assay with human CGRP receptor, the “% inhibition of human CGRPR” value was 73%.

B4: iPS:328034 (bispecific antibody, human IgG1, kappa, N297G)
light 1: not shown
heavy 1: not shown
light 2: B1 light 2 with Q101K
heavy 2: not shown
For B4, in the assay with human PAC1 receptor, the “% inhibition of human PAC1” value worked out at 9%. In addition, the “% inhibition of human CGRPR” value in the assay with human CGRP receptor stood at 86%.

B5: iPS:328036 (bispecific antibody, human IgG1, kappa, N297G)
light 1: not shown
heavy 1: not shown
light 2: B1 light 2
heavy 2: not shown
As to B5, the “% inhibition of human PAC1” value with human PAC1 receptor was 21%. The “% inhibition of human CGRPR” value in the assay with human CGRP receptor stood at 79%.

B6: iPS:326651 (bispecific antibody, human IgG2, kappa, lambda)
light 1: not shown
heavy 1: QVQLQESGPGLVKPSQTLSLTCTVSGGSISSGGYYWSWIRQHPGKGLEWIGYIYYSGNTYYNPSLKSRVTISGDTSKNQFSLKLRSVTAADTAVYYCTRGGAARGMDVWGQGTTVTVSSASTKGPSVFPLAPCSRSTSESTAALGCLVKDYFPEPVTVSWNSGALTSGVHTFPAVLQSSGLYSLKSVVTVPSSNFGTQTYTCNVDHKPSNTKVDKTVERKCCVECPPCPAPPVAGPSVFLFPPKPKDTLMISRTPEVTCVVVDVSHEDPEVQFNWYVDGVEVHNAKTKPREEQFNSTFRVVSVLTVVHQDWLNGKEYKCKVSNKGLPAPIEKTISKTKGQPREPQVYTLPPSREEMTKNQVSLTCLVDGFYPSDIAVEWESNGQPENNYDTTPPMLDSDGSFFLYSDLTVDKSRWQQGNVFSCSVMHEALHNHYTQKSLSLSPGK
light 2: not shown
heavy 2: not shown
Take B6: the “% inhibition of human PAC1” value with human PAC1 receptor stood at 23%. In the assay with human CGRP receptor, the “% inhibition of human CGRPR” value was 66%.

B7: iPS:327889 (bispecific antibody, human IgG1, kappa, lambda, N297G)
light 1: not shown
heavy 1: not shown
light 2: QSVLTQPPSVSAAPGQKVTISCSGSSSNIGNNYVSWYQQLPGTAPKLLIYDNNKRPSGIPDRFSGSKSGTSATLAITGLQTGDEADYYCGTWDSRLSAVVFGGGTKLTVLGQPKANPTVTLFPPSSEELQANKATLVCLISDFYPGAVTVAWKADGSPVKAGVETTKPSKQSNNKYAAKSYLSLTPEQWKSHRSYSCQVTHEGSTVEKTVAPTECS
heavy 2: QVQLVESGGGVVQPGRSLRLSCAASGFTFSSFGMHWVRQAPGKGLEWVAVISFDGSIKYSVDSVKGRFTISRDNSKNTLFLQMNSLRAEDTAVYYCARDRLNYYDSSGYYHYKYYGMAVWGQGTTVTVSSASTKGPSVFPLAPSSKSTSGGTAALGCLVKDYFPEPVTVSWNSGALTSGVHTFPAVLQSSGLYSLESVVTVPSSSLGTQTYICNVNHKPSNTKVDKKVEPKSCDKTHTCPPCPAPELLGGPSVFLFPPKPKDTLMISRTPEVTCVVVDVSHEDPEVKFNWYVDGVEVHNAKTKPCEEQYGSTYRCVSVLTVLHQDWLNGKEYKCKVSNKALPAPIEKTISKAKGQPREPQVYTLPPSRKEMTKNQVSLTCLVKGFYPSDIAVEWESNGQPENNYKTTPPVLKSDGSFFLYSKLTVDKSRWQQGNVFSCSVMHEALHNHYTQKSLSLSPGK
Turning to B7, the “% inhibition of human PAC1” value with human PAC1 receptor was 9%. For the same molecule, the “% inhibition of human CGRPR” value with human CGRP receptor stood at 83%.

B8: iPS:327890 (bispecific antibody, human IgG1, kappa, lambda, N297G)
light 1: not shown
heavy 1: not shown
light 2: B7 light 2 with G103K
heavy 2: B7 heavy 2 with G44E
For the molecule B8, the “% inhibition of human PAC1” value with human PAC1 receptor came out at 15%. The “% inhibition of human CGRPR” value with human CGRP receptor was determined as 94%.

B9: iPS:328042 (bispecific antibody, human IgG1, kappa, lambda, N297G)
light 1: B3 light 1
heavy 1: not shown
light 2: not shown
heavy 2: not shown
B9: in the assay with human PAC1 receptor, the “% inhibition of human PAC1” value was determined as 20%. In the assay with human CGRP receptor, the “% inhibition of human CGRPR” value was determined as 85%.

B10: iPS:328045 (bispecific antibody, human IgG1, kappa, lambda, N297G)
light 1: B3 light 1
heavy 1: not shown
light 2: not shown
heavy 2: not shown
On to B10, for which the “% inhibition of human PAC1” value with human PAC1 receptor was 29%. Moreover, the “% inhibition of human CGRPR” value with human CGRP receptor turned out to be 67%.

B11: iPS:328037 (bispecific antibody, human IgG1, kappa, lambda, N297G)
light 1: B3 light 1
heavy 1: not shown
light 2: not shown
heavy 2: not shown
Regarding B11, the “% inhibition of human PAC1” value with human PAC1 receptor worked out at 25%. In addition, the “% inhibition of human CGRPR” value with human CGRP receptor turned out to be 71%.

B12: iPS:328040 (bispecific antibody, human IgG1, kappa, lambda, N297G)
light 1: B3 light 1
heavy 1: not shown
light 2: not shown
heavy 2: not shown
As to B12, the “% inhibition of human PAC1” value with human PAC1 receptor came out at 70%. For the same molecule, the “% inhibition of human CGRPR” value with human CGRP receptor is 74%.

B13: iPS:328044 (bispecific antibody, human IgG1, kappa, lambda, N297G)
light 1: not shown
heavy 1: not shown
light 2: not shown
heavy 2: EVQLVESGGGLVKPGGSLRLSCAASGFTFSNAWMSWVRQAPGKELEWVGRIKSKTDGGTTDYTAPVKGRFTISRDDSKNTLYLQMNSLKAEDTAVYYCTTDRTGYSISWSSYYYYYGMDVWGQGTTVTVSSASTKGPSVFPLAPSSKSTSGGTAALGCLVKDYFPEPVTVSWNSGALTSGVHTFPAVLQSSGLYSLESVVTVPSSSLGTQTYICNVNHKPSNTKVDKKVEPKSCDKTHTCPPCPAPELLGGPSVFLFPPKPKDTLMISRTPEVTCVVVDVSHEDPEVKFNWYVDGVEVHNAKTKPCEEQYGSTYRCVSVLTVLHQDWLNGKEYKCKVSNKALPAPIEKTISKAKGQPREPQVYTLPPSRKEMTKNQVSLTCLVKGFYPSDIAVEWESNGQPENNYKTTPPVLKSDGSFFLYSKLTVDKSRWQQGNVFSCSVMHEALHNHYTQKSLSLSPGK
B13: the “% inhibition of human PAC1” value with human PAC1 receptor was determined as 5%. The “% inhibition of human CGRPR” value with human CGRP receptor worked out at 77%.

B14: iPS:328039 (bispecific antibody, human IgG1, kappa, lambda, N297G)
light 1: not shown
heavy 1: not shown
light 2: not shown
heavy 2: B13 heavy 2 with S30G, T63A, A90T, Y97F
Consider B14, for which the “% inhibition of human PAC1” value with human PAC1 receptor turned out to be 9%. The “% inhibition of human CGRPR” value with human CGRP receptor worked out at 74%.
